Results: PMC7935953, “Insights on autophagosome–lysosome tethering from structural and biochemical characterization of human autophagy factor EPG5” (Communications Biology, 2021)

Biological target: T1, GABARAP (Homo sapiens, UniProt O95166)
T1 construct: made in house; host or cells: E. coli (T7 Express)
Assay: GST pull-down of hEPG5 (wild type and mutants) with GST-GABARAP bait
Type: binding
Details: anti-FLAG western blot, compared to wild-type hEPG5, triplicates
Protocol: For GST pull-down analysis, N-terminally GST-tagged LC3 and GABARAP proteins were expressed in Escherichia coli (T7 Express) cells. The cells were induced with 1 mM isopropyl β-d-1-thiogalacpyranoside [IPTG] for 4 h at 25 °C. The cell pellets were resuspended in 25 mL buffer E (50 mM Tris pH 8.0, 150 mM NaCl, and 1 mM PMSF). Cells were then sonicated for four cycles consisting of 1 min sonication followed by 2 min cooling on ice, with duty cycle set to 50% and output control at 5. Cell lysate was then centrifuged at 20,950 × g for 40 min at 4 °C. Supernatant was incubated for 1 h at 4 °C with glutathione resin (50% slurry, GenScript) pre-equilibrated with buffer E, while gently inverting. Resin was returned to the column and washed with buffer E. Proteins were eluted with 10 mM reduced glutathione (GoldBio) in buffer F (50 mM Tris pH 8.0, 150 mM NaCl). Free glutathione was removed by dialysis in buffer F and protein concentration was measured by spectrophotometry (NanoDrop, Thermo Scientific). Glycerol was added to a final concentration of 5%, then solutions were aliquoted and stored at −70 °C.
Pulldowns were performed with a 50 µL slurry of glutathione resin (50% slurry, GenScript). […]
All experiments were performed in triplicates. […] Intensity of His-FLAG-hEPG5, GST (control), and GST-LC3/GABARAP subfamily proteins in pull-down assays was quantified using Bio-Rad Image Lab Software v6.0. […]

T1 sequence (O95166 whole entry): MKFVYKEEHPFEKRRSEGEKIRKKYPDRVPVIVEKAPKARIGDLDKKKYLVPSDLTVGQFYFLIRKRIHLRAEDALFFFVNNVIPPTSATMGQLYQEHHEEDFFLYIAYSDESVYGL

B1: hEPG5^Δ1–1198: hEPG5 truncation mutant which excludes the entire N-terminal region (protein)
chain: YHCDRSLLSSLVSWIVAGNITPSFVEGLATPTQVWFAWTVLNMESIFEEDSQLRRVIEGELVINSAFTPDQALKKAQTQLKLPIVPSLQRLLIYRWAHQALVTPSDHPLLPLIWQKFFLLYLHRPGPQYGLPIDGCIGRRFFQSPAHINLLKEMKRRLTEVADFHHAASKALRVPAEGSEGLPESHSGTPGYLTSPELHKELVRLFNVYILWLEDENFQKGDTYIPSLPKHYDIHRLAKVMQNQQDLWMEYLNMERIYHEFQETVGLWTQAKLESHSTPCSLSVQLDFTDPLLAKERVLSNLRKHEAPQPPLALHPTKPPVPVISSAVLLSQKDATQLVCTDLNLLQQQARTAALRESQQVALDGELLDTMPKQYVNREEQTTLHLECRGSSGKKCQGAAVVTVQFEGMHKNEAISQQLHVLRKEVKQLQAEAAKPPSLNIVEAAVHAENLITALVNAYKLQPTPGIQKVGISLFFTIVDYVSDETQRHPPTRQFFTSCIEILGQVFISGIKSECRKVLETILKNSRLCSLLSPFFTPNAAPAEFIQLYEQVVKFLSEDNSDMIFMLLTKFDLKQWLSATKPPLSDRTRLLESIHLALTAWGLEPDEDILMPFNLFCKHWTYLLLYQFPDQYSDILRLLMQSSAEQLLSPECWKATLRALGCCAPSCQQGAASTEGAVLPSSSDALLSDKQVMETIQWLSDFFYKLRLSKMDFKSFGLFSKWSPYMADVKTFLGYLVKRLIDLEMTCLAQDPTASRKTVLKSLHSVIIQLFKPWILVLEDNESSQQRHYPWLESDTVVASSIVQLFTDCIDSLHESFKDKLLPGDAGALWLHLMHYCEACTAPKMPEFILYAFHSTYRKLPWKDLHPDQMLMEAFFKVERGSPKSCFLFLGSVLCEVNWVSVLSDAWNSSPHPETRSMIVCLLFMMILLAKEVQLVDQTDSPLLSLLGQTSSLSWHLVDIVSYQSVLSYFSSHYPPSIILAKESYAELIMKLLKVSAGLSIPTDSQKHLDAVPKCQAFTHQMVQFLSTLEQNGKITLAVLEQEMSKLLDDIIVFNPPDMDSQTRHMALSSLFMEVLMMMNNATIPTAEFLRGSIRTWIGQKMHGLVVLPLLTAACQSLASVRHMAETTEACITAYFKESPLNQNSGWGPILVSLQVPELTMEEFLQECLTLGSYLTLYVYLLQCLNSEQTLRNEMKVLLILSKWLEQVYPSSVEEEAKLFLWWHQVLQLSLIQTEQNDSVLTESVIRILLLVQSRQNLVAEERLSSGILGAIGFGRKSPLSNRFRVVARSMAAFLSVQVPMEDQIRLRPGSELHLTPKAQQALNALESMASSKQYVEYQDQILQATQFIRHPGHCLQDGKSFLALLVNCLYPEVHYLDHIR
modifications: left off: His, end not stated, kept | FLAG, end not stated, kept
notes: hEPG5 truncation mutant which excludes the entire N-terminal region
For B1, the “binding to GABARAP in GST pull-down, in words” value was “but not hEPG5^Δ1–1198 was pulled down by GABARAP”.
